# Measurements as given in patent publication US20190075806A1, “PROTEINASE B AND LACTASE SOLUTION USING ITS PROPERTIES AND METHOD FOR PRODUCING THE SAME” (GODO SHUSEI CO., LTD., priority 2016, published 2019).
# Entries after “also recorded” stand apart in the source; their conditions may differ. Like-named read-outs stand apart in the source and are kept apart here.
# B1: lactase described in Patent Literature 1: lactase from cultures of a strain of Kluyveromyces lactis (JP 60-18394 B) (protein, UniProt P00723 1-1025, looked up)
# Beta-galactosidase: MSCLIPENLRNPKKVHENRLPTRAYYYDQDIFESLNGPWAFALFDAPLDAPDAKNLDWETAKKWSTISVPSHWELQEDWKYGKPIYTNVQYPIPIDIPNPPTVNPTGVYARTFELDSKSIESFEHRLRFEGVDNCYELYVNGQYVGFNKGSRNGAEFDIQKYVSEGENLVVVKVFKWSDSTYIEDQDQWWLSGIYRDVSLLKLPKKAHIEDVRVTTTFVDSQYQDAELSVKVDVQGSSYDHINFTLYEPEDGSKVYDASSLLNEENGNTTFSTKEFISFSTKKNEETAFKINVKAPEHWTAENPTLYKYQLDLIGSDGSVIQSIKHHVGFRQVELKDGNITVNGKDILFRGVNRHDHHPRFGRAVPLDFVVRDLILMKKFNINAVRNSHYPNHPKVYDLFDKLGFWVIDEADLETHGVQEPFNRHTNLEAEYPDTKNKLYDVNAHYLSDNPEYEVAYLDRASQLVLRDVNHPSIIIWSLGNEACYGRNHKAMYKLIKQLDPTRLVHYEGDLNALSADIFSFMYPTFEIMERWRKNHTDENGKFEKPLILCEYGHAMGNGPGSLKEYQELFYKEKFYQGGFIWEWANHGIEFEDVSTADGKLHKAYAYGGDFKEEVHDGVFIMDGLCNSEHNPTPGLVEYKKVIEPVHIKIAHGSVTITNKHDFITTDHLLFIDKDTGKTIDVPSLKPEESVTIPSDTTYVVAVLKDDAGVLKAGHEIAWGQAELPLKVPDFVTETAEKAAKINDGKRYVSVESSGLHFILDKLLGKIESLKVKGKEISSKFEGSSITFWRPPTNNDEPRDFKNWKKYNIDLMKQNIHGVSVEKGSNGSLAVVTVNSRISPVVFYYGFETVQKYTIFANKINLNTSMKLTGEYQPPDFPRVGYEFWLGDSYESFEWLGRGPGESYPDKKESQRFGLYDSKDVEEFVYDYPQENGNHTDTHFLNIKFEGAGKLSIFQKEKPFNFKISDEYGVDEAAHACDVKRYGRHYLRLDHAIHGVGSEACGPAVLDQYRLKAQDFNFEFDLAFE
# B2: S. cerevisiae: PrB derived from S. cerevisiae, comparison enzyme (protein, UniProt P09232 281-574, looked up)
# Cerevisin: EFDTQNSAPWGLARISHRERLNLGSFNKYLYDDDAGRGVTSYVIDTGVNINHKDFEKRAIWGKTIPLNDEDLDGNGHGTHCAGTIASKHYGVAKNANVVAVKVLRSNGSGTMSDVVKGVEYAAKAHQKEAQEKKKGFKGSTANMSLGGGKSPALDLAVNAAVEVGIHFAVAAGNENQDACNTSPASADKAITVGASTLSDDRAYFSNWGKCVDVFAPGLNILSTYIGSDDATATLSGTSMASPHVAGLLTYFLSLQPGSDSEFFELGQDSLTPQQLKKKLIHYSTKDILFDIPE
# B3: PrB: proteinase B derived from Kluyveromyces lactis, neutral protease with lactase-fragmenting activity, SEQ ID NO:1 (protein, listed as Kluyveromyces lactis)
# chain: SFNTQNSAPWGLARISHREKLNLGSFNKYLYDDDAGKGVTAYVVDTGVNVNHKDFDGRAVWGKTIPKDDPDVDGNGHGTHCAGTIGSVHYGVAKNADIVAVKVLRSNGSGTMSDVVKGVEYVAEAHKKAVEEQKKGFKGSTANMSLGGGKSPALDLAVNAAVKAGVHFAVAAGNENQDACNTSPAAAENAITVGASTLSDERAYFSNWGKCVDIFGPGLNILSTYIGSDTATATLSGTSMATPHVVGLLTYFLSLQPDADSEYFHAAGGITPSQLKKKLIDFSTKNVLSDLPEDTVNY
# Key:
# [1] = pH 7.0, cited from earlier work
# [2] = tested on: Azocoll; assay: Azocoll-decomposing activity; format: biochemical; conditions: for SUBSTRATE SPECIFICITY: substrate Azocoll
# [3] = tested on: Azocasein; assay: Substrate specificity, Azocasein; format: biochemical
# Source text: As a method for evaluating an influence on the fragmentation activity of PrB, the “lactase-fragmenting activity” can be also used as its index. This “lactase-fragmenting activity” indicates the enzyme activity of fragmenting the lactase protein, and an actual index can be defined as follows. When the band strength around 120 kDa of a sample to which PrB is not added is regarded as 100%, the band area relative value around 120 kDa of samples obtained by adding 1 to 4 mACU of PrB is found as a relative value (1 ACU means the amount of enzyme which raises the absorbance at 428 nm by 1 at 30° C. for an hour using azocasein as a substrate). Next, the amount of enzyme added when the lactase band after reaction at 30° C. for an hour decreases by 20% compared to when PrB is not added is regarded as 1 LDU (Lactase Degradation Unit) of lactase-fragmenting activity.
# [4] = Substrate specificity, Bz-Tyr-pNa; format: biochemical
# [5] = tested on: lactase; assay: Lactase-fragmenting activity (LDU); format: biochemical, Kluyveromyces; conditions: for SUBSTRATE SPECIFICITY: substrate Lactase
# Source text: In addition, the “lactase-fragmenting action” in the claims and description can be an action by which the neutral lactase around 120 kDa in SDS-PAGE is fragmented, and preferably the fragments of the fragmented lactase show the neutral lactase activity. As a method for evaluating an influence on the fragmentation activity of PrB, the “lactase-fragmenting activity” can be also used as its index. This “lactase-fragmenting activity” indicates the enzyme activity of fragmenting the lactase protein, and an actual index can be defined as follows. When the band strength around 120 kDa of a sample to which PrB is not added is regarded as 100%, the band area relative value around 120 kDa of samples obtained by adding 1 to 4 mACU of PrB is found as a relative value (1 ACU means the amount of enzyme which raises the absorbance at 428 nm by 1 at 30° C. for an hour using azocasein as a substrate). Next, the amount of enzyme added when the lactase band after reaction at 30° C. for an hour decreases by 20% compared to when PrB is not added is regarded as 1 LDU (Lactase Degradation Unit) of lactase-fragmenting activity.
# [6] = tested on: BSA; assay: Substrate specificity, BSA; format: biochemical
# [7] = tested on: FITC-casein; assay: FITC-casein-decomposing activity; format: biochemical; conditions: for SUBSTRATE SPECIFICITY: substrate FITC-casein
# [8] = tested on: lactase; assay: Fragmentation of lactase confirmed by SDS-PAGE; format: biochemical, Kluyveromyces
# Experimental: First, the state of fragmentation of lactase in a lactase solution can be confirmed by SDS-PAGE using 10% polyacrylamide gel. For example, a lactase solution is diluted with purified water as needed, and mixed with Sample Buffer for SDS-PAGE at 1:1, and electrophoresis samples are prepared by heat treatment at 100° C. for 3 minutes. Next, the standard and electrophoresis samples are applied to 10% acrylamide gel, and subjected to electrophoresis. The molecular weight of lactase can be also roughly estimated by comparison with the standard. As the standard, CLEARLY Stained Protein Ladder (Takara #3454A) and the like are used. The gel after electrophoresis is subjected to protein staining using a CBB staining solution (BIO-RAD #161-0786).
# The gel after staining was scanned as a grayscale image with a scanner GT-X820 manufactured by Seiko Epson Corporation. Furthermore, the concentration of each band (protein amount) can be also measured by Image J software (NIH, Bethesda, Md.). […]
# As prior consideration, the following test was carried out about a relationship between the fragmentation and heat stability of lactase. […] As the conditions of the heat stability test, using an enzyme solution (lactase solution) diluted to 0.25 NLU/g, the activity after treatment at 50° C. for 10 minutes was calculated as the remaining activity (%) to that of an untreated sample. […]
# [9] = Substrate specificity, Bz-Arg-pNa; format: biochemical
# [10] = Substrate specificity, Ac-Phe-pNa; format: biochemical
# [11] = tested on: Casein; assay: Substrate specificity, Casein; format: biochemical
# [12] = FITC-casein-decomposing activity
# [13] = FITC-casein-decomposing activity, listed as K. lactis
molecule,measurement,setting,value
B1,deactivated,[1]; 50° C. for 10 minutes,45%
same,deactivated,[1]; 55° C. for 10 minutes,100%
B2,HEAT STABILITY,[2]; Azocoll-decomposing activity,25 °C
same,INHIBITOR,[2]; Azocoll-decomposing activity,"PCMB, PMSF,; also recorded: HgCl2"
same,OPTIMUM REACTION pH,[2]; Azocoll-decomposing activity,pH 7.0
same,SUBSTRATE SPECIFICITY,[2],9.1
same,SUBSTRATE SPECIFICITY,[3],1
same,SUBSTRATE SPECIFICITY,[4],0.2
B3,INHIBITOR,[5]; lactase-fragmenting activity,AEBSF
same,OPTIMUM REACTION TEMPERATURE,[5]; lactase-fragmenting activity,40 °C
same,OPTIMUM REACTION pH,[5]; lactase-fragmenting activity,pH 7.0
same,SUBSTRATE SPECIFICITY,[5],high substrate specificity
same,SUBSTRATE SPECIFICITY,[5]; listed as K. lactis,1159
same,SUBSTRATE SPECIFICITY,[6],0
same,ACTIVATOR,[7]; [12],Ca^2+
same,HEAT STABILITY,[7]; [12],40 °C
same,INHIBITOR,[7]; [12],"Cu^2+, Fe^2+"
same,OPTIMUM REACTION TEMPERATURE,[7]; [12],about 40 °C
same,OPTIMUM REACTION pH,[7]; [12],about 8.0 pH
same,pH STABILITY,[7]; [12],5.0 to 8.0 pH
same,OPTIMUM REACTION TEMPERATURE,[7]; [13],40 °C
same,OPTIMUM REACTION pH,[7]; [13],pH 8.0
same,pH STABILITY,[7]; [13],pH 5.0~8.0
same,SUBSTRATE SPECIFICITY,[7],high substrate specificity
same,SUBSTRATE SPECIFICITY,[7]; listed as K. lactis,78
same,SUBSTRATE SPECIFICITY,[2],1.9
same,state of fragmentation of lactase (SDS-PAGE),[8],fragmentation of lactase proceeded
same,amount of PrB at which fragmentation was not caused,"[8]; with respect to 1 NLU of lactase activity, added to F-1, 30° C. for 20 hours",0.26 ng
same,SUBSTRATE SPECIFICITY,[9],0
same,SUBSTRATE SPECIFICITY,[10],0
same,SUBSTRATE SPECIFICITY,[3],1
same,SUBSTRATE SPECIFICITY,[11],0
same,SUBSTRATE SPECIFICITY,[4],0
